For test [1], the target named is phosphorylated NKG2A C-term peptide (C-terminal ITIM) (human). Description: SPR (BIAcore), 25 RU phosphopeptide on streptavidin chip, GST fusion injected.
Test [2] concerns the target phosphorylated NKG2A N-term peptide (N-terminal ITIM) (human). Described as above.
The target is the same in test [3]. Description: SPR (BIAcore); upper end of the range, tied by Table 4 to GST-SHP-1.SH2(N+C) and the N-terminal ITIM (4.80). On the technique in general: Surface plasmon resonance follows binding to a sensor surface in real time, without labels.
The target is the same in test [4]. Nature of the test: SPR (BIAcore); lower end of the range, tied by Table 4 to GST-SHP-2.SH2(N+C) and the N-terminal ITIM (1.38).
Test [5] deals with T1, SHP-1 protein tyrosine phosphatase from RBL-2H3 cell lysates (rat (cell line RBL-2H3), UniProt P81718 1-613).
T1 construct: Detected by immunoblot with anti-SHP-1 mAb
T1 sequence (P81718 whole entry): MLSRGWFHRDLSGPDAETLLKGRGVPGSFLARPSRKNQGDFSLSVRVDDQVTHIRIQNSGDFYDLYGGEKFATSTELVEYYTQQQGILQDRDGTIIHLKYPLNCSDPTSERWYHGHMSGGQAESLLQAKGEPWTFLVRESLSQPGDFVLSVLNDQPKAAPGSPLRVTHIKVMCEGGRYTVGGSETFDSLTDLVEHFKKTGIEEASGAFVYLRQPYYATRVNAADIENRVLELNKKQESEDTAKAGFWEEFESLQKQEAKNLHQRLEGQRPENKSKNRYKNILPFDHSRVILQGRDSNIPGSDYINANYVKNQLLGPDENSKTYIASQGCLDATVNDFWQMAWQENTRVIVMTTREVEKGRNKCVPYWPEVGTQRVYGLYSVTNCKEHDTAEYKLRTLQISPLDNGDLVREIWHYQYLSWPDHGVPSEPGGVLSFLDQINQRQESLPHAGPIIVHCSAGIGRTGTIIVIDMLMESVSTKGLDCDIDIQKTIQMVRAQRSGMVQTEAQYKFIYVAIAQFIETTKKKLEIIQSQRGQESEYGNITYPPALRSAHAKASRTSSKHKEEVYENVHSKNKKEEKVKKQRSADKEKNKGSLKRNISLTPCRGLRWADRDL
Description: cell lysate adsorption to peptide beads, immunoblot (RBL-2H3). Background: In western blotting, separated proteins are transferred to a membrane and probed.

Test [6] concerns the target T2, SHP-2 protein tyrosine phosphatase from RBL-2H3 cell lysates (rat (cell line RBL-2H3), UniProt P41499 2-593).
T2 construct: Detected by immunoblot with anti-SHP-2 mAb
T2 sequence (looked up): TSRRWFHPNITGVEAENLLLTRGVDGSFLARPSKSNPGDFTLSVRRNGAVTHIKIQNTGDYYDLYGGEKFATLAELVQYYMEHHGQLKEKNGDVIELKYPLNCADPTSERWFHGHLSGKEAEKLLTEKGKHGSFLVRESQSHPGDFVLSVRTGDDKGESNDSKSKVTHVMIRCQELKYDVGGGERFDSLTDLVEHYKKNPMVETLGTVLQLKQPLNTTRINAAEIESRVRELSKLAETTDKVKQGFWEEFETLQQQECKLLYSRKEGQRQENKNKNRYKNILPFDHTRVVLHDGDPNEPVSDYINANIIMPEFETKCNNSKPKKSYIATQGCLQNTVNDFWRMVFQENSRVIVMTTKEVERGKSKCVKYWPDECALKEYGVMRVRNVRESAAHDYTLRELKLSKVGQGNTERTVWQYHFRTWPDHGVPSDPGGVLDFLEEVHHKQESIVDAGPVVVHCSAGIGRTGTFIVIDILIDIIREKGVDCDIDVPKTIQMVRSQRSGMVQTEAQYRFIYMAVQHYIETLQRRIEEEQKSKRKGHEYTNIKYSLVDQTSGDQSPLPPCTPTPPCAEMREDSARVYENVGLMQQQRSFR
Described as above.

Test [7] concerns the target T3, GST-SHIP.SH2 fusion protein (murine, UniProt Q9ES52 8-104).
T3 construct: also called SH2 domain of SHIP; not shown: Glutathione S-transferase (GST) fusion partner
T3 sequence (looked up): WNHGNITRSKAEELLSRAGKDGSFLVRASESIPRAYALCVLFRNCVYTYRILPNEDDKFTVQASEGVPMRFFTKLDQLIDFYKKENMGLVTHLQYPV
Nature of the test: SPR (BIAcore), phosphopeptide (25 RU) on streptavidin chip, FIG. 16. The protocol: Surface plasmon resonance measurements were performed on a BIAcore apparatus (BIAcore). The GST-SHP1.SH2(NC), GST-SHP2.SH2(NC) and GST-SHIP.SH2 fusion proteins generated from the murine phosphatase cDNAs, were purified from DH5α lysates as previously described. Before their use in BIAcore experiments, fusion proteins were dialyzed in HBS buffer pH 7.4 (10 mM HEPES, 150 mM NaCl, 3.4 mM EDTA). Protein purity was assessed by 12.5% SDS-PAGE, and Coomassie blue staining. The running buffer used in all BIAcore experiments consisted of HBS buffer supplemented with 0.05% surfactant P20. Equilibrium constant determination (koff and kₒₙ) was performed using BIAevaluation 2.0 software. The equilibrium dissociation constants KD were calculated from the koff/kₒₙ ratio.
The measurement of phosphorylated peptide binding to GST-SHP-1.SH2(N+C) and GST-SHP-2.SH2(N+C) fusion proteins was performed at a constant 5 μl/min flow rate. […] Results are expressed as corrected resonance units (CRU) corresponding to the raw RU values after subtraction of background RU value due to the injection medium, koff and kₒₙ were calculated from three independent measurements using the BIAevaluation 2.0 software. In addition, kₒₙ was calculated as the slope of the curve kg=kₒₙ×c−koff, where koff is the off-rate constant and c is the concentration of the soluble recombinant GST fusion proteins. […]

For test [8], the target named is T4, SHIP polyinositol phosphatase from RBL-2H3 cell lysates (rat (cell line RBL-2H3), UniProt P97573 1-1190, limits assumed).
T4 construct: Detected by immunoblot with anti-SHIP antiserum
T4 sequence (looked up): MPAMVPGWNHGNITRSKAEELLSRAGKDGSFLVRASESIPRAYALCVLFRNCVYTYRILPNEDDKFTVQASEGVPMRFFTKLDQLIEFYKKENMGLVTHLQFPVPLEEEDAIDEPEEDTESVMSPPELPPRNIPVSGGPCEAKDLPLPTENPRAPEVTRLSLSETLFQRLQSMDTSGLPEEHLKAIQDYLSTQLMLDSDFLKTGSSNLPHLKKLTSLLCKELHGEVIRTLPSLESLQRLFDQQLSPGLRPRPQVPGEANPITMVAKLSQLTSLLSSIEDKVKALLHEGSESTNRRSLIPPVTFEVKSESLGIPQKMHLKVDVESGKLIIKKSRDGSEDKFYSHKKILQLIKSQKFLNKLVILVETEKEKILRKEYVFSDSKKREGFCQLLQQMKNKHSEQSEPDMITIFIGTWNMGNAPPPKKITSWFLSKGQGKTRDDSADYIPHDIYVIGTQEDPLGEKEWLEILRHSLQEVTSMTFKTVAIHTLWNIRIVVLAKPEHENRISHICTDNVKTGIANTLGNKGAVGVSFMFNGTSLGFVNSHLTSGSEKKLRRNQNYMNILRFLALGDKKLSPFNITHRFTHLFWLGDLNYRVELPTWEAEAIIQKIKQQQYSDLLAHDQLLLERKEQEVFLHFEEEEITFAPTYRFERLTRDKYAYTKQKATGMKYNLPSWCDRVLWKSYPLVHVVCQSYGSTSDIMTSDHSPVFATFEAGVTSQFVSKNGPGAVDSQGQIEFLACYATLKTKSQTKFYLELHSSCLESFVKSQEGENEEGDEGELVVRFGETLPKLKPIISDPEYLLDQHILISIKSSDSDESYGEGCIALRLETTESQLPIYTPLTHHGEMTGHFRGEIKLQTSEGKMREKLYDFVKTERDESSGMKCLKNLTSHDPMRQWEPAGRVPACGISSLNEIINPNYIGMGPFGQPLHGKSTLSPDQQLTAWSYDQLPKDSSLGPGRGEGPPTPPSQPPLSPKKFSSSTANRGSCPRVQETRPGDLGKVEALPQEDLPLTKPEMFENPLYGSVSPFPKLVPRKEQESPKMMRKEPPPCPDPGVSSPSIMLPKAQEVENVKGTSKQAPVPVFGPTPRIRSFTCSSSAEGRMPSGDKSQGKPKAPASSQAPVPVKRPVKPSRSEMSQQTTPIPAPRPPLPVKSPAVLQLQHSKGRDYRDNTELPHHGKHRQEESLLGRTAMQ
Description: cell lysate adsorption to peptide beads, immunoblot (RBL-2H3), FIG. 15A. The protocol:
In an attempt to characterize the function of these putative ITIMs, cell lysates were incubated with phosphorylated and nonphosphorylated synthetic peptides corresponding to the N-terminal and the C-terminal I/VxYxxL stretches present in NKG2A intracytoplasmic domain. Cell lysates absorbed to peptides were then assayed by immunoblotting for the presence of the phosphatases known to interact with phosphorylated ITIMs, i.e. the protein tyrosine phosphatases SHP-1 and SHP-2, as well as the polyinositol phosphate phosphatase, SHIP. In parallel, lysates adsorption were performed using control peptides corresponding to ITIMs present in Ig-like ITIM bearing receptors such as human KIRs (p58.2/CD158b, a receptor for HLA-Cw3) and mouse FcγRIIB, as well as in mouse lectin-like ITIM-bearing receptor, such as Ly-49A.
As shown in FIG. 15A (lanes 1 and 2), both N- and C-terminal I/VxYxxL stretches present in NKG2A associate with SHP-1 and SHP-2 in vitro, but no binding to SHIP was detected. Similar patterns of association were obtained using the phosphorylated ITIM peptides of […] and p58.2 KIR (FIG. 15A, lanes 3 to 5). In contrast, FcγRIIB phosphorylated ITIM peptides also associate with SHIP (FIG. 15A, lane 6). No association of phosphatases with nonphosphorylated peptides corresponding to FcγRIIB (FIG. 15A, lane 7) and NKG2A N- and C-terminal I/VxYxxL stretches was detected. When nonphosphorylated and phosphorylated peptides were used to adsorb lysates prepared from ³⁵S methionine/cysteine-labeled cells, only two bands around 64 and 68 kDa selectively associate with both phosphorylated NKG2A N- and C-terminal I/VxYxxL stretches, as compared to nonphosphorylated ones (FIG. 15B). The 64 and 68 kDa proteins which bind to phosphorylated NKG2A peptides correspond to SHP-1 and SHP-2 apparent molecular weight respectively, supporting the immunoblotting results. Therefore, our results define the two NKG2A I/VxYxxL stretches as ITIMs which appear to function similarly to other ITIMs present in inhibitory receptors for MHC class I molecules, i.e. KIRs and Ly-49 molecules. Using recombinant soluble tandem SH2 domains of SHP-1 and SHP-2, we confirmed by surface plasmon resonance that both NKG2A ITIM phosphopeptides directly associate with the SH2 domains of SHP-1 and SHP-2, but not with the SH2 domain of SHIP (FIG. 16).

Test [9] concerns the target T4, SHIP polyinositol phosphatase from …. Nature of the test: cell lysate adsorption to peptide beads, immunoblot (RBL-2H3).
Test [10] deals with T5, human NKG2A on NKL, M117-14 and 7-10 cells (human, UniProt P26715 1-233).
T5 construct: whole, on cells
T5 sequence (P26715 whole entry): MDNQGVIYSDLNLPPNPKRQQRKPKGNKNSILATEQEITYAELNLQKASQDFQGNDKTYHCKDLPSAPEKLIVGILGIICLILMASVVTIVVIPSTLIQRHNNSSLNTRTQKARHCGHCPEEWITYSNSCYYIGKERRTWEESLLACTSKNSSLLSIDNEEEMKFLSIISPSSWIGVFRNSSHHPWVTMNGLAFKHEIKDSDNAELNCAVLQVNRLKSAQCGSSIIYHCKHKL
Nature of the test: immunoprecipitation with anti-NKG2A and anti-CD94 mAb.

Where no end group is shown, it is not given here. [ ]: non-standard residue; d: D form. The star is where a group is joined. Biotin = O=C1N[C@H]2[C@H](CS[C@H]2CCCCC(=O)*)N1; pY = N[C@@H](Cc1ccc(OP(=O)(O)O)cc1)C(=O)O

In [1], “GST-SHP-1.SH2(N+C) fusion protein (from UniProt P29351 1-217)” yielded a dissociation constant Kd of 2.83 nM, an off-rate (koff) of 0.00117 s⁻¹ and a kon of 410000 M⁻¹ s⁻¹. Besides, in test [2], the equilibrium dissociation constant (Kd) was determined as 4.8 nM, the dissociation rate constant (koff) came to 0.00189 s⁻¹ and the kon turned out to be 390000 M⁻¹ s⁻¹. Moreover, the dissociation constant (Kd) in [3] lay in the range of 1 to 5 nM.

For the molecule “GST-SHP-2.SH2(N+C) fusion protein (from UniProt P35235 1-220)”, the dissociation constant (Kd) in test [1] is 1.57 nM; in test [2] it was 1.38 nM; in [4] it was 1 to 5 nM. Besides, the koff was found to be 0.00132 s⁻¹ in test [1] and 0.00142 s⁻¹ in test [2]. Further, the on-rate (kon) came to 840000 M⁻¹ s⁻¹ in test [1] and 1.03e+06 M⁻¹ s⁻¹ in test [2].

B1: phosphorylated FcγRIIB-I260A peptide (peptide)
peptide: Biotin-KTEAENTAT[pY]SLLK
notes: also called FcγRIIB 1-I260A; mutated FcγRIIB ITIM
Turning to B1, the binding result in [5] and in [6] was “no binding” in each case.

As for Biotin-DEQDPQEAT[pY]AQLN (also called mutated KIR ITIM peptide) [phosphorylated p58.2.1-V301A peptide], the binding result in test [5] and in [6] was “no binding” in each case.

B2: phosphorylated NKG2A N-term peptide (N-terminal ITIM) (peptide)
peptide: Biotin-MDNQGVI[pY]SDLNL
notes: also called NKG2-A N-terminal ITIM; NKG2A/B phosphorylated ITIM peptide
B2: the binding result is given as “no binding (tested: 100 nM)” in test [7] and “no binding” in test [8].

B3: non-phosphorylated NKG2A N-term peptide (peptide)
peptide: Biotin-MDNQGVIYSDLNL
notes: also called nonphosphorylated NKG2A N-terminal I/VxYxxL stretch
Consider B3, for which, in test [9], the binding result is given as “no binding”.

B4: human CD94 on NKL, M117-14 and 7-10 cells (receptor, UniProt Q13241 1-179, looked up)
chain: MAVFKTTLWRLISGTLGIICLSLMSTLGILLKNSFTKLSIEPAFTPGPNIELQKDSDCCSCQEKWVGYRCNCYFISSEQKTWNESRHLCASQKSSLLQLQNTDELDFMSSSQQFYWIGLSYSEEHTAWLWENGSALSQYLFPSFETFNTKNCIAYNPNGNALDESCEDKNRYICKQQLI
notes: whole, on cells
B4: in test [10], the binding result is “binds”.

As usually defined, the Kd is the free concentration of one partner at which half of the binding sites on the other are occupied at equilibrium, for simple one-to-one binding. Read a low Kd as tighter binding. By koff is commonly meant the first-order rate constant of dissociation. Lower therefore signals slow dissociation. Usually kon stands for a measure of how fast the partners come together. A high value points to faster complex formation.

Source of the values: patent US20040038894A1, “Compounds for modulating cell negative regulations and biological applications thereof” (INSTITUT NATIONAL DE LA SANTE ET DE LA RECHERCHE MEDICALE …, priority 1996, published 2004).
